We go through 18 molecules from patent US20100330094A1 (NOVIMMUNE S A, published 2010).

Holding throughout (assay): cell-based or functional assay
For test [1], the target named is T1, recombinant human IP-10 (hIP-10) (human, UniProt P02778 22-98).
T1 sequence (looked up): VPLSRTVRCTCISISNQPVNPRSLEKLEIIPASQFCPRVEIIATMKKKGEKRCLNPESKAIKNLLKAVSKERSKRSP

Test [2] deals with T1, recombinant human IP-10 (hIP-10). The source holds these as a separate data set.
Test [3] concerns the target T2, native human IP-10 (hIP-10) (human, UniProt P02778 22-98).
T2 sequence (looked up): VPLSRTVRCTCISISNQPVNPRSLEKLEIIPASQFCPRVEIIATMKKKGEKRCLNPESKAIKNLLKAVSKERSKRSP

B1: CE7C1R3H8_J9, scFv format (scFv)
chain: QVQLVESGGGVVQPGRSLRLSCAASGFTFSTYGMHWVRQAPGKGLEWVAVISYDGGTKYYADSVKGRFTISRDNSMKTLYLQMNSLRTEDTAVYYCAKDLGDLPPGLDYWGQGTMVTVSSQSVLTQPPSASGTPGQRVTISCSGSSSNIGSNTVNWYQQLPGAAPKLLIYTNNQRPSGVPDRFSGSKSGTSASLAISGLQSEDEADYYCAAWDDSSEPRVVFGGGTKVTVL
Take B1: the “Chemotaxis IC50 (nM); 1 nM hIP-10; hCXCR3 L1.2 cells” value in test [1] came to 0.9 nM.

B2: CF1H1R3P4_B5, scFv format (scFv)
chain: QVQLVESGGGVVQPGRSLRLSCAASGFTFSNSGIHWVRQAPGKGLEWVAVISYDGSNKFYADSVKGRFTISRDNSKNTLYLQMNSLRAEDTAVYYCAKLRDNGEYLDYWGQGTLVTVSSNFMLTQPHSVSESPGKTVTISCTGSGGSIDRNYVQWYQQRPGSSPTTVIYEDNQRPSGVPDRFSGSIDSSSNSASLTISGLKTEDEADYYCQSYVETPEWVFGGGTKLTVL
Take B2: in test [1], the “Calcium flux IC50 (nM); 10 nM hIP-10; hCXCR3 L1.2 cells” value (from here on “Calcium flux IC50 … hCXCR3 L1.2 cells”) is 2.4 nM and the “Chemotaxis IC50 (nM); 0.2 nM hIP-10; hCXCR3 L1.2 cells” value is 0.51 nM.

B3: CB21R3P1_F1, scFv format (scFv)
chain: QVQLVESGGGVVRPGRSLRLSCAASGFTFSSYGMHWVRQAPGKGLEWVAVISYDGSIKYYADSVKGRFTISRDNSKNTLYLQMNSLRAEDTAIYYCARVMGTDPHSYYYMDVWGKGTLVTVSSSSELTQDPAVSVALGQTVRITCQGDSLRSYYASWYQRKPGQAPVLVIYGKNNRPSGIPDRFSGSSSGNTASLTITGAQAEDEADYYCNSRDSSGNHVLFGGGTKLTVL
Turning to B3, in test [1], the “Calcium flux IC50 … hCXCR3 L1.2 cells” value was 36 nM and the “Chemotaxis IC50 (nM); 2 nM hIP-10; hCXCR3 L1.2 cells” value worked out at 40 nM.

B4: CC21R3P1_C1a, scFv format (scFv)
chain: QVQLVESGGGVVQPGRSLRLSCAASGFTFSSYGMHWVRQAPGKGLEWVAVISYDGSNKYYADSVKGRFTISRDNSKNTLYLQMNSLRAEDTAVYYCAKDEFDAFDIWGRGTMVTVSSSYVLTQPPSVSVAPGTTARITCGGNNIGSRSVHWYQQKPGQAPLLVIYYDSDRPSGIPLRFSGSNSGNTATLTISRVEAGDEADYYCQVWDTSSGHYVFGTGTKVTVL
For the molecule B4, in test [1], the “Calcium flux IC50 … hCXCR3 L1.2 cells” value was determined as 37 nM and the “Chemotaxis IC50 (nM); 1 nM hIP-10; hCXCR3 L1.2 cells” value amounted to 108 nM.

B5: CB2R2P4_C3, IgG1 format (antibody, V domains shown)
VH: QVTLRESGPALVKPTQTLTLTCTFSGFSLTTSGMSVIWIRQPPGKALEWLARIDSDDEKHYNTSLKTRLAISKDTSKNQVVLTMTNMDPVDTGTYYCARLRAGSGPYVFDSWGQGTTVTVSS
VL: QSVLTQPPSASGTPGQRVTISCSGSSSNIGSNTVNWYQRLPGAAPQLLIYNNDQRPSGIPDRFSGSKSGTSGSLVISGLQSEDEADYYCASWDDSLNGRVFGGGTKLTVL
For B5, in test [2], the “Calcium flux IC50 (nM); 10 nM rhIP-10” value is over 200 nM and the “Chemotaxis IC50 (nM); 1 nM rhIP-10” value is 33 nM.

B6: CB2R2P4_C3, scFv format (scFv)
chain: QVTLRESGPALVKPTQTLTLTCTFSGFSLTTSGMSVIWIRQPPGKALEWLARIDSDDEKHYNTSLKTRLAISKDTSKNQVVLTMTNMDPVDTGTYYCARLRAGSGPYVFDSWGQGTTVTVSSQSVLTQPPSASGTPGQRVTISCSGSSSNIGSNTVNWYQRLPGAAPQLLIYNNDQRPSGIPDRFSGSKSGTSGSLVISGLQSEDEADYYCASWDDSLNGRVFGGGTKLTVL
Turning to B6, in test [1], the “Calcium flux IC50 … hCXCR3 L1.2 cells” value turned out to be 14 nM and the “Chemotaxis IC50 (nM); 1 nM hIP-10; hCXCR3 L1.2 cells” value came to 15 nM.

B7: CB21R3P3_E5, IgG1 format (antibody, V domains shown)
VH: QVQLVESGGGVVQPGRSLRLSCAASGFTFSSYGMHWVRQAPGKGLEWVAVISYDGSIKYYADSVKGRFTISRDNSKNTLYLQMNSLRAEDAAVYYCARAPDGHQLDYWGRGTLVTVSS
VL: NFMLTQPHSVSESPGKTVTISCTGSSGSIASNYVQWYQQRPGSAPTTVIYEDDQRPSDVPDRFSGSIDSSSNSASLTISGLRTEDEADYYCQSYVSSKWVFGGGTKLTVL
On to B7, for which the “Chemotaxis IC50 (nM); 1 nM rhIP-10” value in test [2] came out at 122 nM.

B8: CC21R3P1_E7, IgG1 format (antibody, V domains shown)
VH: QLVESGGGVVQPGRSLRLSCAASGFTFSTYGMHWVRQAPGKGLEWVAVISYDGGTKYYADSVKGRFTISRDNSMKTLYLQMNSLRTEDTAVYYCAKDLGDLPPGLDYWGQGTMVTVSS
VL: not shown
In the case of B8, in test [2], the “Calcium flux IC50 (nM); 10 nM rhIP-10” value was over 200 nM and the “Chemotaxis IC50 (nM); 1 nM rhIP-10” value came out at 56 nM.

B9: CC21R3P3_C1, scFv format (scFv)
chain: QVQLVESGGGVVQPGRSLRLSCAASGFTFSSYGMHWVRQAPGKGLEWVAVISYDGSIKYYADSVKGRFTISRDNSRNTLYLQMNSLRPEDTAVYYCAKDWGFSGSLTFDYWGQGTMVTVSSSYVLTQPPSVSVAPGKTARITCGGNNIGSKSVHWYQQKPGQAPVLVIYYDSDRPSGIPERFSGSNSGNTATLTISRVEAGDEADYYCQVWDSSSDHVVFGGGTKVTVL
B9: in test [1], the “Calcium flux IC50 … hCXCR3 L1.2 cells” value amounted to 71 nM and the “Chemotaxis IC50 (nM); 1 nM hIP-10; hCXCR3 L1.2 cells” value was 72 nM.

B10: CC21R3P1_H6, IgG1 format (antibody, V domains shown)
VH: QVQLVESGGGVAQSGKSLRLSCAASGFTFSNYGMHWVRQAPGKGLEWLAVISYDGSNRYYADSVKGRFTISRDNSNNTLNLQMSSLRAEDTALYYCAKDAGGPLDYWGKGTLVTVSS
VL: VLTQLTQPPSVSLAPGQTATITCGGDNIGRKSVHWYQQKPGQAPVLVVYDDTDRPSGIPERFSGSNSGNTATLTISRVEAGDEADYYCQVWDSSIDHSWVFGGGTKLTVL
For the molecule B10, in test [2], the “Calcium flux IC50 (nM); 10 nM rhIP-10” value is over 200 nM and the “Chemotaxis IC50 (nM); 1 nM rhIP-10” value was 75 nM.

B11: CC21R3P4_F4, IgG1 format (antibody, V domains shown)
VH: QVQLVESGGGVAHSGKSLRLSCAASGFTFSNYGMHWVRQAPGKGLEWLAVISYDGSNRYYADSVKGRFTISRDNSNNTLNLQMSSLRAEDTALYYCAKDAGGPLDYWGRGTLVTVSS
VL: SYVLTQPPSVSVAPGQMARITCGGNNIGDKSVQWYQQRPGQAPLLVVYDDSDRPSGIPERFSGSYSRNTATLTISRVEAGDEADYYCQVWDSSSDHPEVVFGGGTKLTVL
As to B11, in test [2], the “Calcium flux IC50 (nM); 10 nM rhIP-10” value is over 200 nM and the “Chemotaxis IC50 (nM); 1 nM rhIP-10” value is 157 nM.

B12: CF1H1R3P3_G11, IgG1 format (antibody, V domains shown)
VH: QVQLVESGGGVVQPGRSLRLSCAASGFTFSNSGIHWVRQAPGKGLEWVAVISYDGSNKFYADSVKGRFTISRDNSKNTLYLQMNSLRAEDTAVYYCAKLRDNGEYLDYWGQGTLVTVSS
VL: NFMLTQPHSVSESPGKTVTISCTGSGGSIDRNYVQWYQQRPGSSPTTVIYEDNQRPSGVPDRFSGSIDSSSNSASLTISGLKTEDEADYYCQSYDPLPVWVFGGGTKLTVL
As to B12, in test [3], the “Chemotaxis IC50 (nM); native hIP-10 at 0.6 nM” value (“Chemotaxis IC50 … at 0.6 nM” below) stood at 1.9 nM. In addition, in test [2], the “Calcium flux IC50 (nM); 10 nM rhIP-10” value came out at 7.9 nM and the “Chemotaxis IC50 (nM); 0.2 nM rhIP-10” value worked out at 0.2 nM.

B13: CF1A11R3P3_F3, scFv format (scFv, V domains shown, not shown: small tags and cut ends)
VH: QVQLVESGGGVVQPGRSLRLSCAASGFTFSNSGIHWVRQAPGKGLEWVAVISYDGSNKFYADSVKGRFTISRDNSKNTLYLQMNSLRAEDTAVYYCAKLRDNGEYLDYWGQGTLVTVSS
VL: NFMLTQPHSVSESPGKTVTISCTGSGGSIDRNYVQWYQQRPGSAPITVIYEDNQRPSGVPDRFSGSIDSSSNSASLTISGLRTDDEADYYCQSYDSINLWVFGGGTKVTVL
Regarding B13, in test [1], the “Calcium flux IC50 … hCXCR3 L1.2 cells” value is 14 nM and the “Chemotaxis IC50 (nM); 1 nM hIP-10; hCXCR3 L1.2 cells” value amounted to 1.8 nM.

B14: CF1H1R3P4_B5, IgG1 format (antibody, V domains shown)
VH: QVQLVESGGGVVQPGRSLRLSCAASGFTFSNSGIHWVRQAPGKGLEWVAVISYDGSNKFYADSVKGRFTISRDNSKNTLYLQMNSLRAEDTAVYYCAKLRDNGEYLDYWGQGTLVTVSS
VL: NFMLTQPHSVSESPGKTVTISCTGSGGSIDRNYVQWYQQRPGSSPTTVIYEDNQRPSGVPDRFSGSIDSSSNSASLTISGLKTEDEADYYCQSYVETPEWVFGGGTKLTVL
Consider B14, for which the “Chemotaxis IC50 … at 0.6 nM” value in test [3] is 1.2 nM. Further, in test [2], the “Calcium flux IC50 (nM); 10 nM rhIP-10” value was 4.7 nM and the “Chemotaxis IC50 (nM); 0.2 nM rhIP-10” value stood at 0.42 nM.

B15: CF1A11R3P3_F3, IgG1 format (antibody, V domains shown)
VH: QVQLVESGGGVVQPGRSLRLSCAASGFTFSNSGIHWVRQAPGKGLEWVAVISYDGSNKFYADSVKGRFTISRDNSKNTLYLQMNSLRAEDTAVYYCAKLRDNGEYLDYWGQGTLVTVSS
VL: NFMLTQPHSVSESPGKTVTISCTGSGGSIDRNYVQWYQQRPGSAPITVIYEDNQRPSGVPDRFSGSIDSSSNSASLTISGLRTDDEADYYCQSYDSINLWVFGGGTKVTVL
Regarding B15, the “Chemotaxis IC50 … at 0.6 nM” value in test [3] came to 1.7 nM. In test [2], the “Calcium flux IC50 (nM); 10 nM rhIP-10” value is 5.9 nM and the “Chemotaxis IC50 (nM); 0.2 nM rhIP-10” value stood at 0.69 nM.

B16: CC21R3P1_E7, scFv format (scFv)
chain: QLVESGGGVVQPGRSLRLSCAASGFTFSTYGMHWVRQAPGKGLEWVAVISYDGGTKYYADSVKGRFTISRDNSMKTLYLQMNSLRTEDTAVYYCAKDLGDLPPGLDYWGQGTMVTVSSQSVLTQPPSASGTPGQRVTISCSGSSSNIGSNTVNWYQQLPGAAPKLLIYTNNQRPSGVPDRFSGSKSGTSASLAISGLQSEDEADYYCAAWDDSLNGNVVFGGGTKVTVL
For B16, in test [1], the “Calcium flux IC50 … hCXCR3 L1.2 cells” value amounted to 250 nM and the “Chemotaxis IC50 (nM); 2 nM hIP-10; hCXCR3 L1.2 cells” value is 71 nM.

B17: CC21R3P4_F4, scFv format (scFv)
chain: QVQLVESGGGVAHSGKSLRLSCAASGFTFSNYGMHWVRQAPGKGLEWLAVISYDGSNRYYADSVKGRFTISRDNSNNTLNLQMSSLRAEDTALYYCAKDAGGPLDYWGRGTLVTVSSSYVLTQPPSVSVAPGQMARITCGGNNIGDKSVQWYQQRPGQAPLLVVYDDSDRPSGIPERFSGSYSRNTATLTISRVEAGDEADYYCQVWDSSSDHPEVVFGGGTKLTVL
In the case of B17, in test [1], the “Calcium flux IC50 … hCXCR3 L1.2 cells” value is 107 nM and the “Chemotaxis IC50 (nM); 1 nM hIP-10; hCXCR3 L1.2 cells” value was found to be 36 nM.

B18: CB21R3P6_G7, scFv format (scFv)
chain: QVQLVQSGAEVKKPGSSVTVSCKASGGTFSSFSITWLRQAPGQGLEWMGEITPMFGIANYAQKFQGRVTISADESTSTAYMELSGLTSEDTAMYYCARDGRFDVSDLLTDKPKVTINYNGMDVWGQGTLVTVSSQSVLTQPPSASGTPGQRVTISCSGSSSNIGSNTVNWYQRLPGAAPQLLIYNNDQRPSGIPDRFSGSKSGTSGSLVISGLQSEDEADYYCASWDDSLNGRVFGGGTKLTVL
For B18, in test [1], the “Calcium flux IC50 … hCXCR3 L1.2 cells” value came out at 46 nM and the “Chemotaxis IC50 (nM); 1 nM hIP-10; hCXCR3 L1.2 cells” value amounted to 10 nM.
